Test results from the nanobody polyreactivity screen of Harvey et al. (2022).

Assay: yeast display, Sf9 membrane polyspecificity reagent, FACS + sequencing; frameworks hold sequencing errors
In short: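 Galactose-induced (36–48 hours) yeast carrying a synthetic nanobody display library were exposed to 10% biotinylated, detergent-solubilized Sf9 membrane reagent at 4 °C for 1 hour. FACS followed streptavidin microbead enrichment, using low and high (top ~1%) gates for expression (anti-HA) and reagent binding (streptavidin). Colony PCR, MiSeq 2 × 250 sequencing and CDR-length filtering followed. Labels for polyreactivity reflect the gate of origin.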

Row | Sequence | polyreactivity (PSR sort gate)
1 | QFQLVESGGGLVQAGGSLRLSCAASGSTFVWNAMGWYRPAPGKERELVAAITNDGRTNYADSVKGRFTISRDNAKNTVYLKMNSLKPEDTAVYYCNADGYNSYWWNYYWGQGTQVTVSS | low polyreactivity
2 | QVQLVESGGGLVQAGGSLRLSCAASGRIFSKNAMGWCRQAPGKERELVAGITSISGSTYYADSVKGRFTISRDNAKNTVYLQMNSLKPEDTAVYYCAARFPHRHYLLYTYDYWGQGTQVTVSS | low polyreactivity
3 | QVQLVESGGGLVQAGGSLRLSCAASGRTFWGYPMGWYRQAPGKERELVAAISSGGSTHYADSVKGRFTISRDNAKNTVYLQMNSLKPEDTAVYYCAAAVGYYAFGTYPFDDWPYDYWGQGTQVTVSS | high polyreactivity
4 | QVQLQERGGGLVQAGGSLRLSCAASGSIFQYTLMGWYLQAPGKEREFVAAITDGANTNYADSVKGRFSISRDNAKNTVNLQMNSLKPEETAVYYCATDYGYTDRVTSGFDYWGLGTQVTVSS | low polyreactivity
5 | QVQLVESGGGLVQAGGSLRLSCAASGLTFFWNAMGWYRQAPGKERELVAAISYSGGSTSYADSVKGRFTISRDNAKNSVYLQMNSLKPEDTAVYYCAAEYWYGPSKGDYWGQGTQVTVSS | high polyreactivity
6 | QVQLVESGGGLVQAGGSLRLSCAASGSTFYYYAMGWYRQAPGKERELVAVITFSGGSTNYADSVKGRFTISRDNAKNTVYLQMNSLKPEDTAVYYCAADTYSYRYSNDYWGQGTQVTVSS | low polyreactivity
7 | QVQLVESGGGLVQAGGSLRLSCAASGRIFSANAMGWYRQAPGKERELVAISWTGGSTYYADSVKGRFTISRDNAKNTVYLQMNSLKPEDTAVYYCAKERYGKYFGSVDYWGQGTQVTVSS | low polyreactivity
8 | QVQLVESGGGLVQAGGSLRLSCAASGRIIQGYAIGWYRQAPGKERELVDAIRSGSGSTYYADSVKGRFTISRDNAKNTVYLQMNSLKPEDTAVYYCAADRYYWGQGTQVTVSS | low polyreactivity
9 | QVQLVESGGGLVQAGGSLRLSCAASGITLRRYAMGWYRQAPGKDRELVDVISVSGGRTHYADSVKGRFTISRDNAKNSVYLQMNSLNPEDTAVYYGAAHFSYRYYTDEVGYWGQGTQVTVSS | high polyreactivity
10 | QVQLVESGGGLVQAGGSLRLSCAASGRIFTGYAMGWYRQAPGKERELVAVISSSTDRTYSADSVKGRFTISRDNAKNTVYFQMNSLKPEDTAVYYCAARPYRHKSRRYDYWGHGTQVTVSS | high polyreactivity
11 | QVQLVESGGGLVQAGGSLRLSCAASGSNFKSNAMGLYRPAPGKERELVAAINRSGAGTYYADSVKGRFTISRDNAKNTVYLQMNSLKPEDTAVYYCAAQSYSRRYDYWGQGTQVTVSS | high polyreactivity
12 | QVQLVESGGGLVQAGGSLRLSCAASGSTFGPYAMGWYRPAPGKERELVADITSSDGSTYYADSVKGRFTISRDNAKNSVYFHLNSLKREDTAVYYCNADYRYIWTYWGWTIYDYWGQGTQVTVSS | high polyreactivity
13 | QDQLVESGGGLVQAGGSLRLSCAASGFTFVRYAMVWYRQAPGKERELVAAISSSGGSTYYADSVKGRFTISRDNAKNTVYLQMNSLKPEDTAVYYCADGPFYRFTDGRYKSLDYCGQGTQVTVSS | high polyreactivity
14 | QVQLVESGGGLVQAGGSLRLSCAASGSIYYYAMGWYRQAPGKEMELVAAITRSGGGTYYADSVKGRFTISRDNAKNTVYLQMNSLKPEDTAVYYCAAARYSRAQPNWTYNYWGQGTQVTVSS | high polyreactivity
15 | QVQLVESGRGLVQAGGSLRISCAASGFTFSRYAMGWYRQAPGKERELVAAISLRGGRTYYADSVKGRFTISRDNAKNTVYLQMNSLKPEDTAVYYCNRDYRGPYYYWGQGTQVTVSS | high polyreactivity
16 | QVQLVESGGGLVQAGGSLRLSCAASGSIFTLYVMGWYRQAPGKERELVAAITWSGGSTYYADSVKGRFTISRDNAKNTVYLQMNSLKTEDPAVYYCNADVRWDSQDYYYWGQGTQVTVSS | low polyreactivity
17 | QVQLVESGGGLVQAGGSLRLSCAASGRTFDINDMGWYRQAPGKEREFVAAIDWSGGYTYYADSVKGRFIISRDNAKNTVYLQMNSQKPEDTAVYYCNARRKRSYDYWGQGTQGTVSS | low polyreactivity
18 | QVQLVESGGGLVQAGGSLRLSCAASGFTFTSYTMGWYRQAPGKERELVAAISYSGGNTYYADSVKGRFTISRDNAKNTVYLQMNSLKQEDTAVYYCAARYWYDSSNYSYDYWGQGTQVTVSS | low polyreactivity
19 | QVQLVESGGGLVQAGGSLRLSCAASGIIFWWYDMGWYRQAPGTERELVAAISTGSRTNYADSVKGRFTISRDNAKNTVYLQMNSLKPEDTAVYYCAAEWVGFSGYYGSGYEMDYWGQGTQVTVSS | low polyreactivity
20 | QVQLVEAGGGLVQAGGSLRLSCAASGSTFVKNAMGWYRQAPGKERELVAAISYRGGRTYYADSVKRRFTISRDNAKNTVYLQMNSLKPEDTAVYYCAADASHLTGYEYWGQGTQGTVSS | high polyreactivity
21 | QVQLVESGGGLVLAGGRLRLSCAASGRIFTRYAMGCYRQAPGKERELVAVITRSGGSTYYADSVKGRFTISRDIAKNTVYLQMNSLKPEDTAVYYCAAKYYGEMYYWGQGTQVTVSS | low polyreactivity
